Consider two molecules from paper PMC4348373, “YY1 suppresses FEN1 over-expression and drug resistance in breast cancer”.

The target of series [1] is T1, YY1 (UniProt P25490 1-414). Description: EMSA; Pull-down: 25 mM Tris, 150 mM NaCl, pH 7.2, room temperature, 30 min; EMSA: LightShift chemiluminescent kit, 5% native PAGE, buffer not stated. To be noted: protein: recombinant; tags: N-terminal 3xFlag; label: 5'-biotin. For orientation: A gel shift assay detects complexes by their altered migration in electrophoresis.
T1 sequence (P25490 whole entry): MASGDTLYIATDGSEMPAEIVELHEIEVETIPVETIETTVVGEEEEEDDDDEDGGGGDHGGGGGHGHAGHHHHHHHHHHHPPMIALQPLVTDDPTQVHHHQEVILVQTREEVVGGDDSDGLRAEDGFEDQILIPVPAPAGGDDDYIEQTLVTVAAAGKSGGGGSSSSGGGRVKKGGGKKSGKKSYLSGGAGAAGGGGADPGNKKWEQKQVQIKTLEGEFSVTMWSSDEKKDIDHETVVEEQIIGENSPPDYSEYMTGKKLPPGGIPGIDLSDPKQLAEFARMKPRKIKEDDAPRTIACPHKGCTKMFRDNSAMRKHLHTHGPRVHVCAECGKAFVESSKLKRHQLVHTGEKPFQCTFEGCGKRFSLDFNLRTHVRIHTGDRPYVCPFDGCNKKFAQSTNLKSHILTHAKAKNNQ
The target of series [2] is T1, YY1. In words: EMSA; complex diminished by anti-YY1, not by IgG (Fig 2C); Pull-down: 25 mM Tris, 150 mM NaCl, pH 7.2, room temperature, 30 min; EMSA: LightShift chemiluminescent kit, 5% native PAGE, buffer not stated. Conditions: protein: recombinant; tags: N-terminal 3xFlag; label: 5'-biotin.

B1: MUT FEN1 (dsDNA)
DNA 1: AACGCTCTCAGCAATTTGCCCCGCGAAG
DNA 2: CTTCGCGGGGCAAATTGCTGAGAGCGTT
Regarding B1, in the series with YY1 [1], the binding result is given as “no binding”.

B2: WT FEN1 (dsDNA)
DNA 1: AACGCTCTCACCATTTTGCCCCGCGAAG
DNA 2: CTTCGCGGGGCAAAATGGTGAGAGCGTT
As to B2, the binding result with YY1 [2] is listed as “binds”.
